# Laboratory results as given in patent US20210032365A1 (Chugai, published 2021).
# T1: human C1s (human, UniProt P09871 16-688)
# T1 construct: also called hC1s; serum-derived human C1s (CompTech)
# T1 sequence: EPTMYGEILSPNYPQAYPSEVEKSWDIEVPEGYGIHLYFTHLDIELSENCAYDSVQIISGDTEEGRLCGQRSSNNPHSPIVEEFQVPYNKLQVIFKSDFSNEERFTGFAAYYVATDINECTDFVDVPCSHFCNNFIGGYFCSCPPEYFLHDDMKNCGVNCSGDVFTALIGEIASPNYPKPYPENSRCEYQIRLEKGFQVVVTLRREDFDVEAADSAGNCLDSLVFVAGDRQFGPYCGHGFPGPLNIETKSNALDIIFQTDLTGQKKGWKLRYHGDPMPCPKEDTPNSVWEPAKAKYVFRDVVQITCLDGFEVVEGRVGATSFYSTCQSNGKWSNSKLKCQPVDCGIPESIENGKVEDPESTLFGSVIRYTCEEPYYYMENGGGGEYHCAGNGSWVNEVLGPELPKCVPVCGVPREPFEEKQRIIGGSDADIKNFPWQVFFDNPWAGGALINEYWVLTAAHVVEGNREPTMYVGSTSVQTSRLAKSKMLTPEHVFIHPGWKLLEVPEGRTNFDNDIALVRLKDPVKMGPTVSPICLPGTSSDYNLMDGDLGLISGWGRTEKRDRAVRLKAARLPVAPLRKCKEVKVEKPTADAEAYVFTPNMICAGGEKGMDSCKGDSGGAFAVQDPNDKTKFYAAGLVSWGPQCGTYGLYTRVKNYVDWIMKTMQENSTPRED
# What was measured:
# human C1s [1] = target: T1, human C1s; assay: SPR, Ab captured; pH 5.8, 1.2 mM Ca
# Protocol: (§1) All variants were transiently expressed and purified by the method described above. The binding affinity of each histidine-substituted variant at pH 7.4 and pH 5.8 was determined at 37 degrees C. using Biacore T200 instrument (GE Healthcare). Recombinant Protein A/G (Pierce) was immobilized onto all flow cells of a CM4 sensor chip using an amine coupling kit (GE Healthcare). Antibodies and analytes were prepared in 7(+) buffer (20 mM ACES, 150 mM NaCl, 1.2 mM CaCl2, 0.05% Tween 20, 0.005% NaN3, pH 7.4), 5(+) buffer (20 mM ACES, 150 mM NaCl, 1.2 mM CaCl2, 0.05% Tween 20, 0.005% NaN3, pH 5.8), or 5(−) buffer (20 mM ACES, 150 mM NaCl, 3 micro M CaCl2, 0.05% Tween 20, 0.005% NaN3, pH 5.8). Each antibody was captured onto the sensor surface by protein A/G. Antibody capture levels were aimed at 200 resonance unit (RU). Serum-derived human C1s (CompTech) or recombinant C1s prepared in EXAMPLE 1 was injected at 50 nM, followed by dissociation. The sensor surface was regenerated in each cycle with 10 mM Glycine-HCl, pH 1.5. […] The ratio of KD 5.8+ to KD 7.4+(“KD 5+/7+”) and that of KD 5.8− to KD 7.4+(“KD 5−/7+”) were calculated. When the KD 5+/7+ or KD 5−/7+ of a variant is larger than that of the parent antibody IPN009VH2-SG4GK/IPN009VK3-SK1, that variant is considered to be “pH”- or “pH and Ca”-dependent, respectively. When binding response in 5(+) buffer and/or in 5(−) buffer of a variant is much lower than that of IPN09VH2/IPN009VK3, that variant is also considered as “pH”- and/or “pH and Ca”-dependent. Therefore, such mutations are effective to generate “pH”- and/or “pH and Ca”-dependent antibody. To further enhance “pH” and/or “pH and Ca” dependency, a combination of histidine mutations was conducted. Antibodies with combinations of histidine mutations were evaluated using Biacore by the method described above.
# human C1s [2] = target: T1, human C1s; assay: SPR, Ab captured; pH 7.4, 1.2 mM Ca
# Protocol: as §1
# human C1s [3] = target: T1, human C1s; assay: SPR, Ab captured; pH 5.8, 3 uM Ca
# Protocol: as §1
# human C1s [4] = target: T1, human C1s; assay: SPR; KD pH 5.8 3 uM Ca / KD pH 7.4 1.2 mM Ca
# Protocol: as §1
# human C1s [5] = target: T1, human C1s; assay: SPR; KD pH 5.8 1.2 mM Ca / KD pH 7.4 1.2 mM Ca
# Protocol: as §1
Binder,Kd (human C1s [1]) [nM],koff (human C1s [1]) [s⁻¹],kon (human C1s [1]) [M⁻¹ s⁻¹],Kd (human C1s [2]) [nM],koff (human C1s [2]) [s⁻¹],kon (human C1s [2]) [M⁻¹ s⁻¹],Kd (human C1s [3]) [nM],koff (human C1s [3]) [s⁻¹],kon (human C1s [3]) [M⁻¹ s⁻¹],KD 5(-)/7(+) (human C1s [4]),KD 5(+)/7(+) (human C1s [5])
"C1_IPN92H0033-SG4GK/IPN93L0030-SK1 (antibody, human IgG4 S228P, kappa, name in Kabat numbering, V domains shown, also called IPN92H0033/IPN93L0030) VH: EVMLVESGGGLVKPGGSLRLSCAASGFTFSNYAMSWVRQAPGKGLEWVATISSGGSHTYYLDSVKGRFTISRDNSKDTLYLQMNSLRAEDTALYYCARLFTGHAMDYWGQGTLVTVSS VL: QIVLTQSPATLSLSPGERATLSCTASSSVSSSYLHWYQQKPGKAPKLWIYSTSNLASGVPSRFSGSGSGTDYTLTISSLQPEDFATYYCHQYYRHHPITFGQGTKLEIKR",89.3,0.0449,503000,24.2,0.0146,603000,2560,0.0603,23500,106,3.7
"C1_IPN92H0033-SG4GK/IPN93L0031-SK1 (antibody, human IgG4 S228P, kappa, name in Kabat numbering, V domains shown, also called IPN92H0033/IPN93L0031) VH: EVMLVESGGGLVKPGGSLRLSCAASGFTFSNYAMSWVRQAPGKGLEWVATISSGGSHTYYLDSVKGRFTISRDNSKDTLYLQMNSLRAEDTALYYCARLFTGHAMDYWGQGTLVTVSS VL: QIVLTQSPATLSLSPGERATLSCTASSSVSSSYLHWYQQKPGKAPKLWIYSTSNLASGVPSRFSGSGSGTDYTLTISSLQPEDFATYYCHQYHRHHPITFGQGTKLEIKR",–,0.00209,807000,–,0.00187,522000,–,0.00934,674000,3.9,0.7
"C1_IPN92H0038-SG4GK/IPN009VK3-SK1 (antibody, human IgG4 S228P, kappa, name in Kabat numbering, V domains shown, also called IPN92H0038/IPN009VK3) VH: EVMLVESGGGLVKPGGSLRLSCAASGFTFSNYAMSWVRQAPGKGLEWVATISSGGSHTYYLDSVKHRFTISRDNSKDTLYLQMNSLRAEDTALYYCARLFTGHAMDYWGQGTLVTVSS VL: QIVLTQSPATLSLSPGERATLSCTASSSVSSSYLHWYQQKPGKAPKLWIYSTSNLASGVPSRFSGSGSGTDYTLTISSLQPEDFATYYCHQYYRLPPITFGQGTKLEIKR",0.668,0.000463,693000,0.679,0.000282,415000,8.33,0.00538,646000,12.3,1

# More lines, now with the values ahead:
Kd (human C1s [1]) [nM],koff (human C1s [1]) [s⁻¹],kon (human C1s [1]) [M⁻¹ s⁻¹],Kd (human C1s [2]) [nM],koff (human C1s [2]) [s⁻¹],kon (human C1s [2]) [M⁻¹ s⁻¹],Kd (human C1s [3]) [nM],koff (human C1s [3]) [s⁻¹],kon (human C1s [3]) [M⁻¹ s⁻¹],KD 5(-)/7(+) (human C1s [4]),KD 5(+)/7(+) (human C1s [5]),Binder
3.53,0.00224,634000,0.958,0.000477,498000,10.2,–,–,10.6,3.7,"C1_IPN92H0038-SG4GK/IPN93L0021-SK1 (antibody, human IgG4 S228P, kappa, name in Kabat numbering, V domains shown, also called IPN92H0038/IPN93L0021) VH: EVMLVESGGGLVKPGGSLRLSCAASGFTFSNYAMSWVRQAPGKGLEWVATISSGGSHTYYLDSVKHRFTISRDNSKDTLYLQMNSLRAEDTALYYCARLFTGHAMDYWGQGTLVTVSS VL: QIVLTQSPATLSLSPGERATLSCTASSSVSSSYLHWYQQKPGKAPKLWIYSTSNLASGVPSRFSGSGSGTDYTLTISSLQPEDFATYYCHQYHRLPPITFGQGTKLEIKR"
5.33,0.00279,524000,1.91,0.000808,422000,12.1,–,–,6.3,2.8,"C1_IPN92H0038-SG4GK/IPN93L0023-SK1 (antibody, human IgG4 S228P, kappa, name in Kabat numbering, V domains shown, also called IPN92H0038/IPN93L0023) VH: EVMLVESGGGLVKPGGSLRLSCAASGFTFSNYAMSWVRQAPGKGLEWVATISSGGSHTYYLDSVKHRFTISRDNSKDTLYLQMNSLRAEDTALYYCARLFTGHAMDYWGQGTLVTVSS VL: QIVLTQSPATLSLSPGERATLSCTASSSVSSSYLHWYQQKPGKAPKLWIYSTSNLASGVPSRFSGSGSGTDYTLTISSLQPEDFATYYCHQYYRHPPITFGQGTKLEIKR"
